Test results reported in paper PMC11812572.

Columns and labels:
[1] = biological target: microtubules polymerised from porcine brain tubulin (GMPCPP-stabilised microtubules and seeds, and dynamic microtubules elongating or nucleated from Atto647N- or Atto647-tubulin) (porcine (endogenous in pig brain)) (UniProt P02550); experiment: TIRF microscopy; γTuRC nucleation assay: biotinylated mBFP-γTuRC immobilized on the surface, 10 µM Atto647-tubulin and 5-30 nM mScarlet-NuMA^FL; γTuRC-nucleated and spontaneously (solution-) nucleated microtubules compared; γTuRC microscopy buffer, 33°C
Chain of microtubules polymerised from porcine brain tubulin (GMPCPP-stabilised microtubules and seeds, and dynamic microtubules elongating or nucleated from Atto647N- or Atto647-tubulin) (porcine (endogenous in pig brain)) (P02550 other isoform, or with tags, fused parts or gaps, chain 1 of 2): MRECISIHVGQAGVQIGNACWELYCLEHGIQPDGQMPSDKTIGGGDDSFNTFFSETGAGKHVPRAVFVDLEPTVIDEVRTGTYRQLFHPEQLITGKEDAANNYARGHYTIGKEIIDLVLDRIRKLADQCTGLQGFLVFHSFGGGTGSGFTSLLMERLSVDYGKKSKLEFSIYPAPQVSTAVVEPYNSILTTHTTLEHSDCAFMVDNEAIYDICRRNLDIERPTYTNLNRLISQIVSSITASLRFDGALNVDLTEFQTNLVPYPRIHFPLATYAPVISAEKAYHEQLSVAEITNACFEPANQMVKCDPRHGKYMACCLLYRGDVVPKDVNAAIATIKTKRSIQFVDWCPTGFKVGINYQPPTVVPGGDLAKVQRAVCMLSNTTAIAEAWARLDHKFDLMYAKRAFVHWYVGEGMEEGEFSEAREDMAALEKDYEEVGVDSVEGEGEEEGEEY
Chain of microtubules polymerised from porcine brain tubulin (GMPCPP-stabilised microtubules and seeds, and dynamic microtubules elongating or nucleated from Atto647N- or Atto647-tubulin) (porcine (endogenous in pig brain)) (chain, as listed by the source, chain 2 of 2): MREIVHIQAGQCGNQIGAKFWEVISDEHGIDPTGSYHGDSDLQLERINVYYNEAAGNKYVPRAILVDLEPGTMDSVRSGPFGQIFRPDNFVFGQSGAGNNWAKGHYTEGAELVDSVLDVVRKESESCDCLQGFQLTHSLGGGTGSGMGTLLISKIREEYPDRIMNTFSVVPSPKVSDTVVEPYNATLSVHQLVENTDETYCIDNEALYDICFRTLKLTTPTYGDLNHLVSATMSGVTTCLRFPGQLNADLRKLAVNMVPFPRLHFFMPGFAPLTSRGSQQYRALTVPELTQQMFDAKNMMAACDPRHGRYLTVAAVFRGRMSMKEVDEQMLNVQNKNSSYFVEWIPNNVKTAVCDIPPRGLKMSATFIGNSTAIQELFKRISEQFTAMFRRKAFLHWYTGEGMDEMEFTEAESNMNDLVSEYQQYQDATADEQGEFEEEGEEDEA

[2] = biological target: microtubules polymerised from porcine brain tubulin (GMPCPP-stabilised microtubules and seeds, and dynamic microtubules elongating or nucleated from Atto647N- or Atto647-tubulin) (porcine (endogenous in pig brain)) (UniProt P02550); experiment: TIRF microscopy; microtubules elongating from surface-immobilized GMPCPP-seeds severed by laser ablation in 40 nM mScarlet-NuMA^FL and 10 µM Atto647N-tubulin; NuMA microscopy buffer, 30°C; new minus and plus ends scored

Substance: mScarlet-tagged full-length human NuMA, mScarlet-NuMA^FL, Q14980-1 1-2115
- percent of minus ends of spontaneously nucleated microtubules with strong NuMA accumulation (highest NuMA concentration) [1]: 93%
- percent of ablation-generated minus ends with NuMA bound [2]: 83%
